Source: article PMC9080080 (Cell Reports, 2022)

B1: XMA01 (antibody, V domains shown)
VH: EVQLVESGGGLVQPGGSLRLSCSASGFTFSSYAMHWVRQAPGKGLEYVSSISSNGGSTYYADSVKGRFTISRDNSKNTLYLQMSSLRVEDAAVYYCVKHYQQQLLWGGPDVWGQGTTVTVSS
VL: DIQMTQSPVSLSASVGDRVTITCRASQSISTWLAWYQQKPGKAPKLLIYETSSLESGVPSRFSGSGSGTEFTLTISSLQPDDFATYYCQQFNSYPWTFGQGTKVEIK
B2: XMA04 (antibody, V domains shown)
VH: EVQLVESGGGVVQPGRSLRLSCAASGFTFRTYAMHWVRQAPGKGLEWVAVMWNDGSNKYYADSVKGRFTISRDNSKNTLYLEMNSLRAEDTAVYYCAREGVAAAGSSSDAFDIWGQGTMVTVSS
VL: DIQMTQSPSSLSASVGDRVTITCRASQSISNFLNWYQQKPGKAPKLLIYAASSLQSGVPSRFSGSGSGTDFTLTISSLQPEDFATYYCQQSYSTLYSFGQGTKLEIK
B3: XMA09 (antibody, V domains shown)
VH: QVQLVQSGAEVKKPGSSVKVSCKASGGTFSSFAISWVRQAPGQGLEWMGGIIPIYGTANYAQKFQGRVTITADESTSTAYMDLSSLRSEDTAVYYCARDGSSTYYPHNWFDPWGQGTLVTVSS
VL: QSVLTQPPSVSGAPGQRVTISCTGSSSNIGSGYDVHWYQQLPGTAPKLLIYGNSNRPSGVPDRFSGSKSGTSASLAITGLQAEDEADYYCQSYDSSLSGVFGTGTKVTVL

These binders were tested against SARS-CoV-2 RBD protein (Severe acute respiratory syndrome …, UniProt P0DTC2) (assay: ELISA).
B1: binds. B2: binds. B3: binds.
